Results as given in the nanobody polyreactivity screen of Harvey et al. (2022).

Assay: yeast display, Sf9 membrane polyspecificity reagent, FACS + sequencing; frameworks hold sequencing errors
Procedure, shortened: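 After 36–48 hours of galactose induction, yeast (Saccharomyces cerevisiae BJ5465) displaying a synthetic nanobody library were stained at 4 °C for 1 hour with 10% biotinylated, detergent-solubilized Sf9 membrane reagent. Streptavidin microbeads enriched the stained cells before FACS sorting into low and high (top ~1%) gates on anti-HA and streptavidin fluorescence. Each clone's polyreactivity label reflects its gate of origin.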

Sequence	polyreactivity (PSR sort gate)
QVQLVESGGGLVQAGGSLRLSCAASGRIFTYYTMGWYRQAPGKERELVAAISWSGGRTYYADSVKGRFTISRDNAKNTVYLQMNSLKPEDTAVFYCARLQDSRESPWRGYYWGQGTQVTVSS	high polyreactivity
QVQLVESGGGLVQAGGSLRLSCAASGRIFTYYTMGWYRQAPGKERELVAAISYSGRTYYADSVKGRFTISRDNAKNTVYLQMNSLKPEDTAVYYCNAARPRGYGFDYWGQGTQVTVSS	high polyreactivity
QVQLVESGGGLVQAGGSLRLSCAASGRIFTYYTMGWYRQAPGKERELVASITGGGGRTYYADSVKGRFTISRDNAKNTVYLQMNSLKPEDTAVYYCNARYPYPYWYTSYDYWGQGTQVTVSS	high polyreactivity
QVQLVESGGGLVQAGGSLRLSCAASGRIFVDYAMGWYRQAPGKERELVAAITRSGDRTYYADSVKGRFTISRDNAKNTVYLQMNSLKPEDTAVYYCATVYPGYVWGQGTQVTVSS	low polyreactivity
QVQLVESGGGLVQAGGSLRLSCAASGRIFVGNAMVCYKQAPGKERELVAGITSRGGSTYYADSVKGRFTISRDNAKNTVYLQMNSLKQEDTAVYYCASYYRYPSWKFDYWGQGTQVTVSS	high polyreactivity
QVQLVESGGGLVQAGGSLRLSCAASGRIFVGYALGWYRQAPGKERELVAAINRSGSSTYYADSVKGRFTISRDNAKNTDYLQMNSLKPEDTAVYYCNARSGNRYGPRYDYWGQGTQVTVSS	high polyreactivity
QVQLVESGGGLVQAGGSLRLSCAASGRIFVGYAMGWYRQAPGKERELVAAINRSGSSTYYADSVKGRFTISRDNAKNTVYLQTNSLKPEDTAVYYCAVRPLYDRRYTAVRRYDYWGQGTQVTVSS	high polyreactivity
QVQLVESGGGLVQAGGSLRLSCAASGRIFVGYAMGWYRQATGKERELVAAISARGGSTYYADSVKGRCTISRDNAKNTVYIQMNSLKPEDTAVYYCAADEASSRGYYDYDYWGQGTQVTVSS	low polyreactivity
QVQLVESGGGLVQAGGSLRLSCAASGRIFVGYVMGWYRQAPGKERELVAAISSGGRTYYADSVKGRFTISRDNAKNTVYLQMNSLKPEDTAVYYCAAKRGGYNKEYDYWGQGTQVTVSS	high polyreactivity
QVQLVESGGGLVQAGGSLRLSCAASGRIFVHNAMGWYRQAPGKERELVAAIRSSGGRTYYADSVKGRFTISRDNAKKTVYLQMNSLKPEDTAVYYCAARFDTTRVGYWGQGTQVTVSS	high polyreactivity
QVQLVESGGGLVQAGGSLRLSCAASGRIFVHNAMGWYSQARGKERELVAAINSGGSTNYADSVKGRFTISRDNANKTVYLQMNSLKPEDTAVYYCAAYWYPYPDAFEYYNYGYWGQGTQVTVSS	high polyreactivity
QVQLVESGGGLVQAGGSLRLSCAASGRIFVHNVMGWYRQAPGKERELVAAITVSGGGTYYADSVKGRFTISRDNAKNTVYLQMNSLKQEDTAVYYCNAVPHPYDWGQGTQVTVSS	low polyreactivity
QVQLVESGGGLVQAGGSLRLSCAASGRIFVHYAMGWYRQAPGKERDLVAAISMSGGNTYYADSVKGRFTISRDNEKNTVYLQMNSLKPEDTAVYYCARAPYYVASGHRRVLRPTYEYWGQGTQLTVSS	low polyreactivity
QVQLVESGGGLVQAGGSLRLSCAASGRIFVHYASGWYRQAPGKERELVAAISWNGGRTFYADSVKGRFTISRDNAKNTVYLQMNSLKPEDTAVYYCAARSRYSLDYWGQGTQVTVSS	high polyreactivity
QVQLVESGGGLVQAGGSLRLSCAASGRIFVHYVMGWYRQAPGKERELVAAISRSGGRTYYADSVKGRFTISRDNAKNTVYLQMNSLKAEDTAVYYCATDASTYKYDYWGQGSQVTVSS	high polyreactivity
QVQLVESGGGLVQAGGSLRLSCAASGRIFVHYVMGWYRQAPGKERELVAAITVSGGGTYYADSVKGRFTISRDNAKNTVYLQMNSLKPEDTAVYYCNAVPHPYDWGQGTQVTVSS	low polyreactivity
QVQLVESGGGLVQAGGSLRLSCAASGRIFVINTMGWYRQAPGKERELVAAISRGGSTNYADSVKGRFTISRDNAKNTVYLQMNSLKPEDTAVYDCAATGYILFAGCGYDYWGEGTQVTVSS	low polyreactivity
QVQLVESGGGLVQAGGSLRLSCAASGRIFVIYAMGWYRQAPGKERELVAAISYSGGSTYYADSVKGRFTISRDNAKNTVYLQMNSLKPEDTAVYYCAARVRGDYGHKYYQYDYWGQGTQVTVSS	low polyreactivity
QVQLVESGGGLVQAGGSLRLSCAASGRIFVKYAMGWYRQAPGKERELVAAISKSGGSTYYADSVKGRFTISRDNAKNTVYLQMNSLKPEDTAVYYCATRSREQYSVSYRLDYWGQGTQVTVSS	low polyreactivity
QVQLVESGGGLVQAGGSLRLSCAASGRIFVKYGMGWYRQAPGKERELVAAISWTGGSTYYADSVKGRFTISRDNAKNTVYLQMNSLKPEDTAVYYCAAESWFKYDYWGQGTQVTVSS	low polyreactivity
QVQLVESGGGLVQAGGSLRLSCAASGRIFVLYAMGWYRQAPGKERELVAAINWSGGSTFYADSVKGRFTISRDNAKNTVYLQMNSLKPEDTAVYYCAARRGYNDGYWGQGTQVTVSS	high polyreactivity
QVQLVESGGGLVQAGGSLRLSCAASGRIFVNNAMGWYRQAPGKEREFDATITSSGGRTYYADSVKGRFTISRDNAKYTVYLQMNSLKPEDTAVYYCAARPQNNGRNPVYRYNYWGQGTQVTVSS	high polyreactivity

Sequence	polyreactivity (PSR sort gate)
QVQLVESGGGLVQAGGSLRLSCAASGRIFVPYAMGWYRQAPGKERELVAAISRNTGSTYYADSVKGRFTISRDNAKNTVYLQMNSLKPEDTAVYYCAAGSRVRYDGGYKINGYWGQGTQVTVSS	high polyreactivity
QVQLVESGGGLVQAGGSLRLSCAASGRIFVPYAMGWYRQAPGKERELVAAISRSSPTYYADSVKGRFTISRDNAKNSVYLQMNSLKQEDTAGYYCAAAYYATTPKADYHFRGYEYWGQGTQVTVSS	high polyreactivity
QVQLVESGGGLVQAGGSLRLSCAASGRIFVRNALGWYRQAPGKERELVAGINSGGGTTYADSVKGRFTISRDNAKNTVYLQMNSLKPEDTAVYYCAAGYWTRYWSWVDYWGQGTQVTVSS	high polyreactivity
QVQLVESGGGLVQAGGSLRLSCAASGRIFVRNAMGWYRQAPGKERELVATITSIGGRTYYADSVKGRFTISRDNAKNTVYLQMNSLKPEDTAVYYCAAYNTQSYPAYLRYDYWGQGTQVTVSS	low polyreactivity
QVQLVESGGGLVQAGGSLRLSCAASGRIFVRNVMGWYRQAPGQERELVARITSGGSTNYADSVKGRFTISRDNAKNTVYLQINSLKPEDTAVYYCAAQGRHYHRTSTGYDYWGQGTQVTVSS	high polyreactivity
QVQLVESGGGLVQAGGSLRLSCAASGRIFVRYAMGWYRQAPGKERELVAAISYRGGSTYYADSVKGRFTISRDNAKNTVYLQMNSLKPEDTAVYYCAARNSYGNWRYYYWGQGTQVTVSS	high polyreactivity
QVQLVESGGGLVQAGGSLRLSCAASGRIFVRYAMGWYRQAPGKERELVASIRSGGSTNYADSVKGRFTISRDNAKNTVYLQMNSLKPEDTAVYYCAAVLRPVRFYSGYYYWGQGTQVTVSS	high polyreactivity
QVQLVESGGGLVQAGGSLRLSCAASGRIFVRYDRGWYRQAPGKERELVAAISSSDGSTYYADSVKGRFTISRDNAKNTVYLQMNSLKPEDTAVYYCNADVSLDDYDYWGQGTQVTVSS	low polyreactivity
QVQLVESGGGLVQAGGSLRLSCAASGRIFVRYTMGWYRQAPGKERELVARITSGGSTNYADSVKGRFTISRDNAKNTVYLQMNSLKPEDTAVYYCAKSYGPRFGYWGQGTQVTVSS	low polyreactivity
QVQLVESGGGLVQAGGSLRLSCAASGRIFVSNAMGWYRQAPGKERELVAAISSSGGSTYYADSVKGRFTISRDNAKNTVYLQMNSLKPEDTAVYYCNVLGQRYYPSGRNYWGQGTQVTVSS	high polyreactivity
QVQLVESGGGLVQAGGSLRLSCAASGRIFVSNAMGWYRQAPGKERELVACITWTSGSTYYADSVKGRFTISRDNAKNTVYLQMNSLKPEDTAVYYCAAEYWYGNAFDYWGQGTQVTVSS	low polyreactivity
QVQLVESGGGLVQAGGSLRLSCAASGRIFVSNAMGWYRQAPGKERELVAGITWTSGSTYYADSVKGRFTISRDNAKNTFYLQMNSLKPEDSAVYYCAAEFWYGNALDYWGQGTQVTVSS	low polyreactivity
QVQLVESGGGLVQAGGSLRLSCAASGRIFVSNDMGWYSQAPGKERELVAAISWSDDSTHYADSVKGRLTISRDNAKNTVYLQMNSLKPEDTAVYYCNKQRYYSTWRYDYWGQGTQVTVSS	low polyreactivity
QVQLVESGGGLVQAGGSLRLSCAASGRIFVSNTMGWYRQAPGKDWEWVAAITSVGSTNYADSVKGRFTISRDHAKNTVYLQMNSLKPEDTAVYYCNADNPYSDGADSLGNYWGQGTQVTVSS	low polyreactivity
QVQLVESGGGLVQAGGSLRLSCAASGRIFVTNAMGWYRQAPGKEREMVAAITRRGGRTYYADSVKGRFTISRDNAKNTVYLQMHSLKREDTAVYYCAAERYPEAGSPYGTAEMDYWGQGTQVTVSS	high polyreactivity
QVQLVESGGGLVQAGGSLRLSCAASGRIFVTNTMGWYRQAPGKERELVAAIDNSAGSTYYADSVKGRFTISRDNAKNTVYLQMNSLKPEDTAVYYCAADYPPYYGYGYWGQGTQVSVSS	low polyreactivity
QVQLVESGGGLVQAGGSLRLSCAASGRIFVVNAMGWYRQAPGKERELVAAITRRGGSTYADSVKGRFTISRDNAKNTVYLQMNSLKPEDTAVYYCNKLVTGGSWSPGHYRYNYWGQGTQVTVSS	high polyreactivity
QVQLVESGGGLVQAGGSLRLSCAASGRIFVVYAMGWYRQAPGKERELVAAITRSGGRTFYAASVKGRFTISRDNATNTVYLQMYSQKPEDTAVYYCNKVDRFYLRLVYWGQGTQVTVAS	high polyreactivity
QVQLVESGGGLVQAGGSLRLSCAASGRIFVVYAMGWYRQAPGKERELVAAITYGGGSTHYADSVKGRFTISRDNAKNTVYLQINSLIPEDTAVYYCAADLFYHSYGYEYWGQGTQVTVSS	low polyreactivity
QVQLVESGGGLVQAGGSLRLSCAASGRIFVVYAMGWYRQAPGKERELVASITWRGGSTYYADSVKGRFTISRDNAKNTVDLQMNSLKPEDTAVYYCAAELDVYVSIGSRFHFDYCGQGTQVTVSS	low polyreactivity
QVQLVESGGGLVQAGGSLRLSCAASGRIFVWNTMGWYRQAPGKERELVAAITSGGSTTYADSVKGRFTISRDNAKNTVYLQMNSLKPEDTAVYYCNTELDLYHPGDDYWGQGTQVTVSS	high polyreactivity
